In patent US20240059799A1 (Pfizer, published 2024):
Numbering of substitutions follows the chain as printed.

T1: recombinant human TL1A (human, UniProt O95150 71-251)
T1 construct: homotrimer; biotinylated for SPR capture; the ELISA paragraphs say only 'recombinant TL1A'; also called TNFSF15
T1 chain: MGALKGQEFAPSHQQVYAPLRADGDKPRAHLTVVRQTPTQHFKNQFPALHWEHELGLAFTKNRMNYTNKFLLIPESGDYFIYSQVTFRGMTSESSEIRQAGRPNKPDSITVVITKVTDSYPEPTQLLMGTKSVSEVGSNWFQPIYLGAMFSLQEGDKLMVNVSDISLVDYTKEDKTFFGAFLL

T2: recombinant human TL1A (human, UniProt O95150 71-251)
T2 construct: Homotrimeric cytokine; biotinylated with Sulfo-NHS-biotin where captured for SPR, coated unlabelled in ELISA, soluble in bioassays; also called TNFSF15
T2 chain: T1 chain

B1: TL1A-0025 (antibody, V domains shown)
VH: QVQLVQSGAEVKKPGASVKVSCKASGYDFTYYGISWVRQAPGQGLEWMGWISTYNGNDHYADSLQGRVTMTTDTSTRTAYMELRSLRSDDTAVYYCARENYYGSGAYRGGMDVWGQGTTVTVSS
VL: EIVLTQSPATLSLSPGERATLSCRASQSVSSYLAWYQQKPGQAPRLLIYDASNRATGIPARFSGSGSGTDFTLTISSLEPEDFAVYYCQQRSNWPWTFGQGTKVEIKR
B2: TL1A-0098 (antibody, IgG1, V domains shown)
VH: B1 VH with D58T, D62R, S63M, N100E
VL: B1 VL
notes: IgG1/kappa variant of TL1A-0002
B3: TL1A-0197 (antibody, IgG1, V domains shown)
VH: B1 VH with D58T, D62R, S63M, N100S, Y107F
VL: B1 VL
notes: as for B2
B4: TL1A-0160 (antibody, IgG1, V domains shown)
VH: B1 VH with D58E, D62P, A106L
VL: B1 VL
notes: as for B2
B5: TL1A-0167 (antibody, human IgG1, kappa, V domains shown)
VH: B1 VH with D58T, D62R, S63M, R77S
VL: B1 VL
notes: TL1A-0002 heavy chain with R(H76)S, TL1A-0002 light chain
B6: TL1A-0147 (antibody, IgG1, V domains shown)
VH: B1 VH with D58E, D62Q, S63K
VL: B1 VL
notes: as for B2
B7: TL1A-0196 (antibody, IgG1, V domains shown)
VH: B1 VH with D58T, D62R, S63M, N100S, A106E
VL: B1 VL
notes: as for B2
B8: TL1A-0194 (antibody, IgG1, V domains shown)
VH: B1 VH with D58T, D62R, S63M, N100Q, Y107F
VL: B1 VL
notes: as for B2
B9: TL1A-0097 (antibody, IgG1, V domains shown)
VH: B1 VH with D58T, D62R, S63M, N100Q
VL: B1 VL
notes: as for B2
B10: TL1A-0250 (antibody, IgG1, V domains shown)
VH: B1 VH with G56T, N57V, D58T, D62P, R77S, N100S, Y107F
VL: DIQMTQSPSSLSASVGDRVTITCRASQSVSSYLAWYQQKPGKAPKLLIYDASNRATGVPSRFSGSGSGTDFTLTISSLQPEDFATYYCQQRSNWPWTFGQGTKVEIKR
notes: IgG1/kappa
B11: TL1A-0195 (antibody, IgG1, V domains shown)
VH: B1 VH with D58T, D62R, S63M, N100Q, Y107H
VL: B1 VL
notes: as for B2
B12: TL1A-0096 (antibody, IgG1, V domains shown)
VH: B1 VH with D58T, D62R, S63M, N100V
VL: B1 VL
notes: as for B2
B13: TL1A-0193 (antibody, IgG1, V domains shown)
VH: B1 VH with D58T, D62R, S63M, N100Q, A106E
VL: B1 VL
notes: as for B2
B14: TL1A-0042 (antibody, human IgG1, kappa, V domains shown)
VH: B1 VH with D58T, D62R, S63M
VL: B10 VL
notes: parental heavy chain with IGKV1-39*01 light chain; human IgG1 effector-function-minimized/kappa
B15: TL1A-0266 (antibody, human IgG1, kappa, V domains shown)
VH: B1 VH with F29Y, G56T, D58T, D62P, R77S, N100S, Y107F
VL: B10 VL
notes: human IgG1 effector-function-minimized/kappa
B16: TL1A-0267 (antibody, human IgG1, kappa, V domains shown)
VH: B1 VH with F29Y, G56T, D58T, D62P, R77S, N100S, Y107H
VL: B10 VL
notes: as for B15
B17: TL1A-0263 (antibody, human IgG1, kappa, V domains shown)
VH: B1 VH with F29Y, G56T, N57G, D58T, D62Q, S63K, R77S, N100S, Y107H
VL: B10 VL
notes: as for B15
B18: TL1A-0265 (antibody, human IgG1, kappa, V domains shown)
VH: B1 VH with F29Y, G56T, N57V, D58T, D62P, R77S, N100S, Y107H
VL: B10 VL
notes: as for B15
B19: TL1A-0274 (antibody, human IgG1, kappa, V domains shown)
VH: B1 VH with T30S, G56T, N57G, D58T, D62P, R77S, N100S, Y107F
VL: B10 VL
notes: as for B15
B20: TL1A-0264 (antibody, human IgG1, kappa, V domains shown)
VH: B1 VH with F29Y, G56T, N57V, D58T, D62P, R77S, N100S, Y107F
VL: B10 VL
notes: as for B15
B21: TL1A-0262 (antibody, human IgG1, kappa, V domains shown)
VH: B1 VH with F29Y, G56T, N57G, D58T, D62Q, S63K, R77S, N100S, Y107F
VL: B10 VL
notes: as for B15
B22: TL1A-0261 (antibody, human IgG1, kappa, V domains shown)
VH: B1 VH with F29Y, G56T, N57G, D58T, D62P, R77S, N100S, Y107H
VL: B10 VL
notes: as for B15
B23: TL1A-0275 (antibody, human IgG1, kappa, V domains shown)
VH: B1 VH with T30S, G56T, N57G, D58T, D62P, R77S, N100S, Y107H
VL: B10 VL
notes: as for B15

Molecular target: T1, recombinant human TL1A
Assay: competition ELISA vs bio-TL1A-0002

Binder | Bioactivity relative to TL1A-0002 [fold] | IC50 [nM] | fold reduction of TL1A binding properties compared to TL1A-0002 [fold]
B1 | 1.6 | 7.2 | –
B2 | 1.5 | 6.6 | –
B3 | 1.9 | 8.7 | –
B4 | 2 | 9.1 | –
B5 | 0.9 | 4.2 | –
B6 | 1.6 | 7.2 | –
B7 | 2.7 | 11.9 | –
B8 | 1.8 | 8.3 | –
B9 | 2.2 | 10 | –
B10 | – | – | > 300
B11 | 1.8 | 8.2 | –
B12 | 2.3 | 10.3 | –
B13 | 2.7 | 12 | –

Molecular target: T2, recombinant human TL1A
Assay: competition ELISA, coated TL1A, competitor bio-TL1A-0002
Experimental: For this competition ELISA assay procedure, 96-well high binding plates (Corning, product number 3590) were coated with 1 μg/mL recombinant TL1A in 100 μL/well in Phospate Buffered Saline (PBS) overnight at 4° C. Plates were then blocked in PBS+0.02% casein solution and washed with PBS+0.05% Tween-20 following standard ELISA protocol. […] Plates were washed with PBS+0.05% Tween-20 following standard ELISA protocol, and Streptavidin-HRP (Southern Biotech, product number 7100-05) diluted to 1:10,000 in assay buffer was added to plates and incubated for 25-30 minutes at room temperature. Next, the plates were washed with PBS+0.05% Tween-20 following standard ELISA protocol, and then TMB substrate (BioFX Laboratories, catalog number TMBW-0100-01) was added to plates. Reactions were stopped after approximately 5 minutes by adding 0.18 M ortho-phosphoric acid to each well and absorbance was read at 450 nm.

Binder | Bioactivity relative to TL1A-0002 [fold] | IC50 [nM]
B14 | 0.8 | 4.2
B15 | 1.3 | 6.6
B16 | 1.3 | 6.8
B17 | 1.2 | 6.2
B18 | 1.7 | 8.7
B19 | 2 | 10.1
B20 | 3.1 | 15.8
B21 | 1.4 | 7.3
B22 | 1.1 | 5.6
B23 | 1.8 | 9

Molecular target: T2, recombinant human TL1A
Assay: cell-based or functional assay

Binder | TF-1 NF-κB reporter cell bioassay IC50 [nM] | TF-1 NF-κB reporter cell bioassay, Bioactivity relative to TL1A-0002 [fold] | Whole blood IFNγ assay IC50 [nM] | Whole blood IFNγ assay, Bioactivity relative to TL1A-0002 [fold]
B14 | 25.9 | 0.7 | 0.748 | 0.9
B15 | 37 | 1.1 | 0.745 | 0.9
B16 | 42.2 | 1.2 | 0.94 | 1.1
B17 | 40.4 | 1.2 | 0.932 | 1.1
B18 | 45.1 | 1.3 | 1.01 | 1.2
B19 | 19.1 | 0.6 | – | –
B20 | 30 | 0.9 | 1.06 | 1.3
B21 | 43.9 | 1.3 | 1.03 | 1.2
B22 | 29.5 | 0.8 | 0.923 | 1.1
B23 | 24.7 | 0.7 | – | –
